Experimental data: article PMC8051608, “Overexpression of GmMYB14 improves high‐density yield and drought tolerance of soybean through regulating plant architecture mediated by the brassinosteroid pathway”

Biological target: T1, GmMYB14 (Glycine max cv. Tianlong No. 1, UniProt K7MYP5 1-291)
T1 sequence: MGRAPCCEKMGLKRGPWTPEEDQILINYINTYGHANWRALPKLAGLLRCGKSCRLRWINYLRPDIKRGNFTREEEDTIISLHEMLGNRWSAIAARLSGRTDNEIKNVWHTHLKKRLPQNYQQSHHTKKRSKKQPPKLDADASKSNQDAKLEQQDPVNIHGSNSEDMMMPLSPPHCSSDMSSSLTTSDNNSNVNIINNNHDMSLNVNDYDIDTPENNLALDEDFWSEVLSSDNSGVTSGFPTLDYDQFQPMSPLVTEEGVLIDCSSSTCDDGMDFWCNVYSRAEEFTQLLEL
Experiment: EMSA; 100x cold probe competition tested; EMSA Kit (Thermo Fisher), non-denaturing 6% polyacrylamide gel, streptavidin-HRP/ECL detection; buffer, salt, pH and temperature not stated
Settings: protein: recombinant; tags: His (pCzn1-His vector); label: biotin; annealed complementary oligos

B1: GmBEN1 promoter AC element 1 probe (30 bp) (dsDNA)
DNA 1: TAATACACCAAGCCACCTACCTTGTCTCTTT
DNA 2: AAAGAGACAAGGTAGGTGGCTTGGTGTATTA
Does B1 bind?
Result: binds
